From patent US20230295301A1 (SHANGHAI JUNSHI BIOSCIENCES, published 2023)
Substitutions are numbered along the chain they refer to.

T1: huCTLA-4 ECD (his-tag) (human, UniProt P16410 37-162)
T1 construct: also called HX1 hCTLA4 his; HX1 huCTLA4 his; not shown: his-tag
T1 sequence: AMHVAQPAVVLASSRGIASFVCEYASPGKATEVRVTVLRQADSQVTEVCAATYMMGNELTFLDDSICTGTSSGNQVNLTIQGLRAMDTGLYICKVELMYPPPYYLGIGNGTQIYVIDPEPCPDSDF

B1: huJS007-48 (antibody, human IgG1, kappa, V domains shown)
VH: QVQLQESGPGLVKPSQTLSLTCTVSAYSITSGYYWNWIRQHPGKGLEWIGYIGYDGSNNYNPSLKSRVTISRDTSKNQFSLKLSSVTAADTAVYYCARDYYSGYFDSWGQGTTLTVSS
VL: DIQMTQSPSSLSASVGDRVTITCRASQNVGTYVAWYQQKPGKAPKPLIYSTSYRYSGVPSRFSGSGSGTDFTLTISSLQPEDFATYFCHQYDTYPLTFGAGTKLELKR
B2: HuJS007-105 (antibody, V domains shown)
VH: B1 VH with T23A, A26G, H41P, S66N, I70M, R72V, A89V, L114V
VL: DIVMTQSPDSLAVSLGERATINCKASQNVGTYVAWYQQKPGQPPKLLIYSTSYRYSGVPDRFSGSGSGTDFTLTISSLQAEDVAVYYCHQYDTYPLTFGQGTKLEIK
notes: 4B7 VH2-5 + 4B7VL6; constant regions not specified
B3: HuJS007-78 (antibody, V domains shown)
VH: B1 VH with T23A, A26G, T30S, H41P, N59Y, I70M, R72V, A89V, D99N, L114V
VL: B2 VL
notes: 1A5 VH5 + 4B7VL6; constant regions not specified
B4: HuJS007-60 (antibody, V domains shown)
VH: B1 VH with Q16E, A26G, H41P
VL: B2 VL
notes: 4B7 VH2-3 + 4B7VL6; constant regions not specified
B5: HuJS007-62 (antibody, V domains shown)
VH: B1 VH with Q16E, A26G, H41P
VL: B2 VL with L46P, Y87F
notes: 4B7 VH2-3 + 4B7VL8; constant regions not specified
B6: HuJS007-73 (antibody, V domains shown)
VH: B1 VH with T23A, A26G, T30S, H41P, N59Y, I70M, R72V, A89V, D99N, L114V
VL: B2 VL with L46P, Y87F, Q100A, I106L
notes: 1A5 VH5 + 4B7VL1; constant regions not specified
B7: HuJS007-64 (antibody, V domains shown)
VH: B1 VH with T23A
VL: B2 VL with L46P, Y87F, Q100A, I106L
notes: 4B7 VH2-4 + 4B7VL1; constant regions not specified
B8: HuJS007-100 (antibody, V domains shown)
VH: B1 VH with T23A, A26G, H41P, S66N, I70M, R72V, A89V, L114V
VL: B2 VL with L46P, Y87F, Q100A, I106L
notes: 4B7 VH2-5 + 4B7VL1; constant regions not specified
B9: HuJS007-69 (antibody, V domains shown)
VH: B1 VH with T23A
VL: B2 VL
notes: 4B7 VH2-4 + 4B7VL6; constant regions not specified
B10: HuJS007-89 (antibody, V domains shown)
VH: QVQLQESGPGLVKPSQTLSLTCAVSGYSISSGYYWNWIRQFPGKGLEWMGYIGYDGSNYYNPSLKNRVTMSVDTSKNQFSLKLSSVTAVDTAVYYCARNYYSGYFDSWGQGTTVTVSS
VL: B2 VL with L46P, Y87F
notes: 1A5 VH6 + 4B7VL8; constant regions not specified
B11: HuJS007-46 (antibody, V domains shown)
VH: B1 VH
VL: B2 VL with L46P, Y87F, Q100A, I106L
notes: 4B7 VH2-2 + 4B7VL1; constant regions not specified
B12: HuJS007-51 (antibody, V domains shown)
VH: B1 VH
VL: B2 VL
notes: 4B7 VH2-2 + 4B7VL6; constant regions not specified
B13: HuJS007-71 (antibody, V domains shown)
VH: B1 VH with T23A
VL: B2 VL with L46P, Y87F
notes: 4B7 VH2-4 + 4B7VL8; constant regions not specified
B14: HuJS007-107 (antibody, V domains shown)
VH: B10 VH with S30T, F41P, M49I, Y59N, N99D
VL: B2 VL with L46P, Y87F
notes: 4B7 VH2-5 + 4B7VL8; constant regions not specified
B15: HuJS007-55 (antibody, V domains shown)
VH: B1 VH with Q16E, A26G, H41P
VL: B2 VL with L46P, Y87F, Q100A, I106L
notes: 4B7 VH2-3 + 4B7VL1; constant regions not specified
B16: HuJS007-80 (antibody, V domains shown)
VH: B10 VH with F41P, M49I, N66S
VL: B2 VL with L46P, Y87F
notes: 1A5 VH5 + 4B7VL8; constant regions not specified
B17: HuJS007-53 (antibody, V domains shown)
VH: B1 VH
VL: B2 VL with L46P, Y87F
notes: 4B7 VH2-2 + 4B7VL8; constant regions not specified

Target: T1, huCTLA-4 ECD (his-tag)
Assay: ELISA, coated huCTLA-4 his
Experimental: HX1 hCTLA4 his was diluted with PBS (Hyclone) to 1.0 μg/mL, and the dilution was added to a microplate at 100 μL/well. The plate was let stand in an incubator at 37° C. and coated for 90 min and then washed, and 2% BSA was added to the plate at 200 μL/well. The plate was incubated in an incubator at 37° C. for 90 min and then washed. The humanized anti-CTLA-4 antibodies in Table 4 and the control antibody (ipilimumab) were diluted with a diluent (2% BSA) to 1000 ng/mL. The dilution performed each time was not higher than 10-fold. Then, the humanized antibodies and the control antibody were serially diluted 2.5-fold on a sample dilution plate. All the humanized antibody solutions and the control antibody solution were added to a microplate at 100 μL/well. The plate was incubated in an incubator at 37° C. for 60 min and then washed. An HRP-conjugated goat anti-human antibody IgG (Fc specific) was diluted 5000-fold with 2% BSA, and the dilution was added to the microplate at 100 μL/well. The plate was incubated in an incubator at 37° C. for 60 min and then washed. The color development solution TMB was added at 100 μL/well, during which bubbles were avoided. Color development was allowed at 37° C. for 15 min in the dark and then terminated by adding 2 M hydrochloric acid solution at 100 μL/well, during which bubbles were avoided. Reading (wavelength: 450/620 nm) was done within 10 min using a microplate reader.

| Binder | binding result |
| --- | --- |
| B1 | binds |
| B2 | binds |
| B3 | binds |
| B4 | binds |
| B5 | binds |
| B6 | binds |
| B7 | binds |
| B8 | binds |
| B9 | binds |
| B10 | binds |
| B11 | binds |
| B12 | binds |
| B13 | binds |
| B14 | binds |
| B15 | binds |
| B16 | binds |
| B17 | binds |
